Reference: paper PMC4155686, “Oleoyl Coenzyme A Regulates Interaction of Transcriptional Regulator RaaS (Rv1219c) with DNA in Mycobacteria*” (The Journal of Biological Chemistry, 2014)
Substitutions are numbered along the chain they refer to. Names and notes keep the numbering of the source.

Experiments:
RaaS R140A = target: T1, RaaS R140A (Mycobacterium tuberculosis, UniProt O86312 1-212, R140A); assay: fluorescence anisotropy; 4 nM DNA; details: protein: recombinant; chain copies: 2
T1 sequence: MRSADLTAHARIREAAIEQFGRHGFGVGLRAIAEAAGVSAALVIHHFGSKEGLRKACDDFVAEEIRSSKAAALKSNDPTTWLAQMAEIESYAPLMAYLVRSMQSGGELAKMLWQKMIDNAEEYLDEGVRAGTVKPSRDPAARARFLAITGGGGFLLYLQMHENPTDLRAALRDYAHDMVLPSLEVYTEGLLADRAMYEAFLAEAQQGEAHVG

RaaS Y174A = target: T2, RaaS Y174A (Mycobacterium tuberculosis, UniProt O86312 1-212, Y174A); assay: fluorescence anisotropy; 4 nM DNA; FA: 50 mM Tris-HCl pH 8.5, 150 mM NaCl, temperature not stated; EMSA: 50 mM Tris-HCl pH 8.0, 1 mM EDTA, 50 mM NaCl, 4% glycerol, sheared salmon sperm DNA (printed as 1 g per reaction), 10 min, room temperature; details: protein: recombinant; chain copies: 2
T2 sequence: T1 sequence with A140R, Y174A

RaaS R144A = target: T3, RaaS R144A (Mycobacterium tuberculosis, UniProt O86312 1-212, R144A); assay: as above; details: protein: recombinant; chain copies: 2
T3 sequence: T1 sequence with A140R, R144A

[1] = target: the molecule itself; assay: small-angle X-ray scattering; protein alone in solution at 1 and 3 mg/ml, data extrapolated to infinite dilution; apparent molecular mass from I(0)

B1: Pr14F/Pr14R (ATTO 647N) (dsDNA)
DNA 1: GGGATGAACGTACGTTTAATATCCTGAACATGCGTTCAG
DNA 2: GGGCTGAACGCATGTTCAGGATATTAAACGTACGTTCAT
Question: Which results are given for B1?
Answer: Kd (RaaS R140A): 654 ± 300 nM; Kd (RaaS Y174A): 611 ± 120 nM; Kd (RaaS R144A): 129 ± 70 nM

B2: RaaS (Rv1219c) R144A mutant (natural protein)
chain: T1 sequence with A140R, R144A
Question: How did the “stoichiometry N” value [1] turn out when B2 was run?
Answer: Its value is 2.

B3: RaaS (Rv1219c) Y174A mutant (natural protein)
chain: T1 sequence with A140R, Y174A
Question: Which “stoichiometry N” value [1] does the source give for B3 here?
Answer: The value was 2.
